Patent publication US7618977B2, “Method of treating dermatitis comprising administering a chymase inhibitor” (Asubio Pharma Co., Ltd., priority 2000, dated 2009)
Values belong to the molecule of their own block, whether it stands above or below them.

Tests used:
Human heart chymase = biological target: T1, Human heart chymase (Homo sapiens, UniProt P23946); experiment: Measurement of chymase inhibitory activity; type: biochemical; conditions: purified human heart chymase, substrate Suc-Ala-Ala-Pro-Phe-MCA, 30° C.
T1 construct: Human heart chymase was purified according to the method of Urata et al; from tissue; host or cells: human heart
T1 sequence (P23946 22-247): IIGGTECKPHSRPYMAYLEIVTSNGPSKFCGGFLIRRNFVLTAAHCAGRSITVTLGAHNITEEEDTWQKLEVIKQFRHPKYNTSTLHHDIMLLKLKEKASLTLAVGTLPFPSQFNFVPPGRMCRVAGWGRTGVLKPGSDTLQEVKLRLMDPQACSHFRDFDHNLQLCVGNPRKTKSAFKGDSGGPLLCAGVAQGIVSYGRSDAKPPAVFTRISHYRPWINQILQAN
Method: Human heart chymase was purified according to the method of Urata et al. (J. Biol. Chem., 1990, 265, 22348). The inhibitory activity of the quinazoline derivatives of the present invention with respect to chymase was measured in the following manner. That is, the purified enzyme solution was diluted to a suitable concentration with 0.1M tris-hydrochloride buffer (pH=7.5), 1M sodium chloride, and 0.01% TritonX-100 to obtain an enzyme solution. A 10 mM dimethyl sulfoxide (hereinafter referred to as DMSO) solution of Suc-Ala-Ala-Pro-Phe-MCA (Peptide Institute) was diluted 20-fold at the time of use by 0.1M tris-hydrochlorate, 1M sodium chloride, and 0.01% TritonX-100 to obtain the substrate solution.
75 μl of the enzyme solution warmed to 30° C. was mixed with 5 μl of DMSO solution of the test sample. The mixture was preincubated at 30° C. for 10 minutes. Next, 20 μl of a substrate solution warmed to 30° C. was mixed with the test sample-enzyme mixture and incubated at 30° C. After 10 minutes, 50 μl of 30% acetic acid was added to stop the enzymatic reaction. The amount of the AMC produced was quantified using a fluorescent photometer. At the same time, a blind test was carried out by adding, instead of the test sample solution, 5 μl of DMSO and performing the same reaction. […]

[1] = test system: human polymorphonuclear leukocytes (PMN); experiment: Human chymase-induced migration of polymorphonuclear leukocytes, 48-well chemotaxis chamber; type: cell-based
Method: In Example 6, it was shown that a remarkable infiltration of leukocytes is observed in late-phase reaction of human chymase-induced dermatitis. The effect of human chymase on the migration of polymorphonuclear leukocytes (PMN) in vitro was investigated for the purpose of investigating the mechanism of chymase-induced leukocyte infiltration. PMN was isolated by adding a ⅕th volume of 6% dextran solution to heparinized whole blood from normal healthy subject and allowing it to stand at 37° C. for 1 hour, then layering the supernatent on Ficoll-Paque (Amersham Pharmacia Biotech) and centrifuging it. Further, the migration of PMN was measured by using a 48-well chemotaxis chamber (NeuroProbe Co.) by the textbook method (Seibutsu Yakkagaku Jikken Koza (Biopharmacology Experiment Lectures) 12, 315, Hirokawa Shoten). That is, a medium containing human chymase (200 to 800 nM) or fMLP (N-formyl-L-methionyl-L-leucyl-L-phenylalanine, Sigma-Aldrich Co.) (10 nM) was placed in the lower well of the chamber. The upper well and the lower well were separated by a polycarbonate filter (pore size 5 μm) (NeuroProbe Co.) PMN (1×10^6/ml) was added to the upper well and cultured at 37° C. for 1 hour, then the filter was fixed, stained and the number of cells in the membrane were counted under a microscope (400×) (Seibutsu Yakkagaku Jikken Koza (Biopharmacology Experiment Lectures) 12, 315). For the cell staining, a hemacolor solution (Merck) was used. In this test, when investigating the effect of the chymase inhibitor, a chymase inhibitor (Compound 18 or Compound 34) was dissolved in dimethyl sulfoxide and added to the lower well of the chamber just before the addition of the human chymase. The concentration of the compound was adjusted so that the final concentration of the dimethyl sulfoxide became 1%.

eosinophils of the skin = experiment: Administration of human chymase to mouse ears, number of eosinophils of skin; type: in vivo, mice; conditions: p<0.01
Method: The effect of a chymase inhibitor on the infiltration of eosinophils of the skin in the test of Example 10 was studied. That is, 48 hours after the sixth application of hapten, the ears of the mice were fixed with formalin and paraffin sections prepared in accordance with an ordinary method. The sections were stained with Fast Green (Fluka), known to specifically stain eosinophils (Current Protocol in Immunology, Wiley Interscience). That is, the deparaffined sections were fixed with 100% methanol for 1 minute, then stained for 30 minutes by 0.2% Fast Green dissolved in 70% ethanol. The eosinophils were measured by randomly selecting 10 fields (×400) under a microscope and counting the number of cells per area using an ocular grid. As the chymase inhibitor, the Compound 18 and Compound 34 were used and =administered by the method described in Example 10. […] The thickness of the ear was measured by a micrometer (Digimatic Indicator, Mitsutoyo Co.) immediately before each administration of chymase and 1 hour, 6 hours, 24 hours, and 48 hours after the administration to find the increase from the ear thickness before the first administration of chymase. […] The number of eosinophils of the skin was measured by the method described in Example 11. […]

IC50 (Human heart chymase): 300 nM
Molecule: CC(C(=O)O)C(=O)Nc1cccc(S(=O)(=O)n2c(=O)[nH]c3cc(Cl)ccc3c2=O)c1 (centres unmarked) [Compound 13, 2-{3-[(7-chloro-2,4(1H, 3H) -quinazolinedion-3-yl)sulfonyl]phenylaminocarbonyl}propionic Acid]

migration-promoting activity relative to fMLP ([1]; 200 to 400 nM chymase equals 10 nM fMLP): about 1/30 | concentration at which promotion of human PMN migration is statistically significant ([1]; chymase 200 to 800 nM in lower well, p<0.05 Dunnett's test): ≥ 400 nM | increase in number of eosinophils compared with ear administered saline (eosinophils of the skin; 24 hours after single intradermal administration of 2.0 μg): approximately 7.6 fold | increase in number of eosinophils compared with group administered saline (eosinophils of the skin; administered at 1 week intervals four times in total, 1 week after administration): about 21 fold
B1: human chymase: recombinant human mature chymase expressed in CHO dhfr- cells, purified; serine protease of mast cells (protein, UniProt P23946 22-247, looked up)
Chymase: T1 sequence (P23946 22-247)
